Literature values, collected in article PMC9405667.

Legend:
[1] = target: chemerin receptor 1 (chem1) (Homo sapiens) (UniProt Q99788)
[2] = target: chemerin receptor 2 (chem2) (Homo sapiens) (UniProt P46091)
chemerin receptor 2 (chem2) (Homo sapiens), sequence (P46091 whole entry): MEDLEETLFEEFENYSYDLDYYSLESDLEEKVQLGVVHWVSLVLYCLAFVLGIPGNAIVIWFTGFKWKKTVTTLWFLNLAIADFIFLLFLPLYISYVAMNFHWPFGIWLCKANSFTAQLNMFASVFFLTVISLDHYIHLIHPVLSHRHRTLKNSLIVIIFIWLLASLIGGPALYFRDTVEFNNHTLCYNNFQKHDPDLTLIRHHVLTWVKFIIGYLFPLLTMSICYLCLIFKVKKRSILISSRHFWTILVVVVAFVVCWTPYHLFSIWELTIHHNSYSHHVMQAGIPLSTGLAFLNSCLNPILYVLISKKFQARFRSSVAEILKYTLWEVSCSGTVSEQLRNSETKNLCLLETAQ

chemerin (chem157S), sequence (Q99969 21-157): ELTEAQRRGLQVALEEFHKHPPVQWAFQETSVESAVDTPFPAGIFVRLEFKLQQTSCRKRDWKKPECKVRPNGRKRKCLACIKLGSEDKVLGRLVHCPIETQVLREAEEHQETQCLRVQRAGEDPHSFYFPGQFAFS
chemerin receptor 1 (chem1) (Homo sapiens), sequence (Q99788 whole entry): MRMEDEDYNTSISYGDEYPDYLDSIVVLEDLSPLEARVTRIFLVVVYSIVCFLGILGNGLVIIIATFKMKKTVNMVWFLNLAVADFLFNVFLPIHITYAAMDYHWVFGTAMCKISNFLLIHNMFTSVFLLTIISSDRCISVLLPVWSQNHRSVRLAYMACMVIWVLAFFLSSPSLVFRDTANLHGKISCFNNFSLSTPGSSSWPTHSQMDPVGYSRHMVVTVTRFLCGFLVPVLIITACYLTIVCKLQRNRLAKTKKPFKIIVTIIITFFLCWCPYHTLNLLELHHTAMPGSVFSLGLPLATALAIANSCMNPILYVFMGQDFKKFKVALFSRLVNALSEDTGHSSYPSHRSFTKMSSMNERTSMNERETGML

Kd [1]: 0.88 nM
Kd [2]: 0.21 nM
Substance: chemerin (chem157S) (from UniProt Q99969)
